Experimental data taken from PMC4168779.

Molecular target: Z protein fused to maltose binding protein, MBP-Z(N6C)
Assay: cross-linking

Row | PEPC efficiency (cross-linking efficiency) [%] | Substance
1 | 73 | ZSPA affibody (Afb) with BrC6K at site 36, Afb(D36BrC6K) (designed binder)
2 | 57 | ZSPA affibody (Afb) with BetY at site 36 (designed binder)
3 | 66 | ZSPA affibody (Afb) with IetY at site 36 (designed binder)
